Non-standard residues stand in square brackets, D forms with d. No end group written: not given here. Phe(3-Cl) = N[C@@H](Cc1cccc(Cl)c1)C(=O)O; Phe(4-Cl) = N[C@@H](Cc1ccc(Cl)cc1)C(=O)O; Phe(4-NH2) = Nc1ccc(C[C@H](N)C(=O)O)cc1; Phe(2-Cl) = N[C@@H](Cc1ccccc1Cl)C(=O)O; 1Nal = N[C@@H](Cc1cccc2ccccc12)C(=O)O; 2Nal = N[C@@H](Cc1ccc2ccccc2c1)C(=O)O; Arg(Me) = CNC(=N)NCCC[C@H](N)C(=O)O; Bta = N[C@@H](Cc1csc2ccccc12)C(=O)O; Cha = N[C@@H](CC1CCCCC1)C(=O)O; azaGly = NNC(=O)O
What was measured:
[1] = target: T1, human OT7T175 (metastin receptor) (human, UniProt Q969F8 1-398); assay: cell-based or functional assay
T1 sequence (Q969F8 whole entry L364H): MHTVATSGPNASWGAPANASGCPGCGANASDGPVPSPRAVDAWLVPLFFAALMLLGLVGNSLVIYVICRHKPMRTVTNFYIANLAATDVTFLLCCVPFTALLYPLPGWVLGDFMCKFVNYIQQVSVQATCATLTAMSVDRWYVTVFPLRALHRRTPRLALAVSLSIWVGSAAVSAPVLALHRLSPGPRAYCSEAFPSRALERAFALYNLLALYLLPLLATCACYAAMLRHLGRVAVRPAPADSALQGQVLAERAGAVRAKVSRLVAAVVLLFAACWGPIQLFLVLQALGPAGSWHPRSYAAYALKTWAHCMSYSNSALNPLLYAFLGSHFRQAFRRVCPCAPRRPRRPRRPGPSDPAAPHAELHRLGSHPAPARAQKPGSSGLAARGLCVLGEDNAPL

[2] = target: T1, human OT7T175 (metastin receptor); assay: competition with Cy-5 metastin (40-54) on hOT7T175-CHO cells, FMAT

Binder | Ca ion level-increasing activity (FLIPR) [1] | IC50 [2]
[dY]N[1Nal]NSF[azaGly]L[Arg(Me)]F-NH2 (N-terminus assumed; SMILES CNC(=N)NCCC[C@H](NC(=O)[C@H](CC(C)C)NC(=O)NNC(=O)[C@H](Cc1ccccc1)NC(=O)[C@H](CO)NC(=O)[C@H](CC(N)=O)NC(=O)[C@H](Cc1cccc2ccccc12)NC(=O)[C@H](CC(N)=O)NC(=O)[C@H](N)Cc1ccc(O)cc1)C(=O)N[C@@H](Cc1ccccc1)C(N)=O, also called Compound No. 245) [[D-Tyr1,Nal(1)3,AzaGly7,Arg(Me)9]MS10] | 1 x Metastin (1-54) | 98 nM
YNWNSFGLR[Bta]-NH2 (N-terminus assumed; SMILES CC(C)C[C@H](NC(=O)CNC(=O)[C@H](Cc1ccccc1)NC(=O)[C@H](CO)NC(=O)[C@H](CC(N)=O)NC(=O)[C@H](Cc1c[nH]c2ccccc12)NC(=O)[C@H](CC(N)=O)NC(=O)[C@@H](N)Cc1ccc(O)cc1)C(=O)N[C@@H](CCCNC(=N)N)C(=O)N[C@@H](Cc1csc2ccccc12)C(N)=O, also called Compound No. 189) [[Ala(3-Bzt)10]MS10] | 10 x Metastin (1-54) | 230 nM
[dY]SNSFGL[Arg(Me)]F-NH2 (N-terminus assumed; SMILES CNC(=N)NCCC[C@H](NC(=O)[C@H](CC(C)C)NC(=O)CNC(=O)[C@H](Cc1ccccc1)NC(=O)[C@H](CO)NC(=O)[C@H](CC(N)=O)NC(=O)[C@H](CO)NC(=O)[C@H](N)Cc1ccc(O)cc1)C(=O)N[C@@H](Cc1ccccc1)C(N)=O, also called Compound No. 226) [des(1)-[D-Tyr2,Ser3,Arg(Me)9]MS10] | 1 x Metastin (1-54) | 100 nM
[dY]TNSFGL[Arg(Me)]F-NH2 (N-terminus assumed; SMILES CNC(=N)NCCC[C@H](NC(=O)[C@H](CC(C)C)NC(=O)CNC(=O)[C@H](Cc1ccccc1)NC(=O)[C@H](CO)NC(=O)[C@H](CC(N)=O)NC(=O)[C@@H](NC(=O)[C@H](N)Cc1ccc(O)cc1)[C@@H](C)O)C(=O)N[C@@H](Cc1ccccc1)C(N)=O, also called Compound No. 227) [des(1)-[D-Tyr2,Thr3,Arg(Me)9]MS10] | 1 x Metastin (1-54) | 48 nM
[dY]NANSF[azaGly]L[Arg(Me)]F-NH2 (N-terminus assumed; SMILES CNC(=N)NCCC[C@H](NC(=O)[C@H](CC(C)C)NC(=O)NNC(=O)[C@H](Cc1ccccc1)NC(=O)[C@H](CO)NC(=O)[C@H](CC(N)=O)NC(=O)[C@H](C)NC(=O)[C@H](CC(N)=O)NC(=O)[C@H](N)Cc1ccc(O)cc1)C(=O)N[C@@H](Cc1ccccc1)C(N)=O, also called Compound No. 235) [[D-Tyr1,Ala3,AzaGly7,Arg(Me)9]MS10] | 1 x Metastin (1-54) | 100 nM
[dY]N[Phe(4-Cl)]NSF[azaGly]L[Arg(Me)]F-NH2 (N-terminus assumed; SMILES CNC(=N)NCCC[C@H](NC(=O)[C@H](CC(C)C)NC(=O)NNC(=O)[C@H](Cc1ccccc1)NC(=O)[C@H](CO)NC(=O)[C@H](CC(N)=O)NC(=O)[C@H](Cc1ccc(Cl)cc1)NC(=O)[C@H](CC(N)=O)NC(=O)[C@H](N)Cc1ccc(O)cc1)C(=O)N[C@@H](Cc1ccccc1)C(N)=O, also called Compound No. 249) [[D-Tyr1,Phe(4Cl)3,AzaGly7,Arg(Me)9]MS10] | 1 x Metastin (1-54) | 150 nM
[dY]N[Phe(3-Cl)]NSF[azaGly]L[Arg(Me)]F-NH2 (also called Compound No. 248) [[D-Tyr1,Phe(3Cl)3,AzaGly7,Arg(Me)9]MS10] | 2 x Metastin (1-54) | 58 nM
[dY]NWNSFGV[Arg(Me)]F-NH2 (also called Compound No. 213) [[D-Tyr1,Val8,Arg(Me)9]MS10] | 2 x Metastin (1-54) | 190 nM
[dY]NVNSF[azaGly]L[Arg(Me)]F-NH2 (N-terminus assumed; SMILES CNC(=N)NCCC[C@H](NC(=O)[C@H](CC(C)C)NC(=O)NNC(=O)[C@H](Cc1ccccc1)NC(=O)[C@H](CO)NC(=O)[C@H](CC(N)=O)NC(=O)[C@@H](NC(=O)[C@H](CC(N)=O)NC(=O)[C@H](N)Cc1ccc(O)cc1)C(C)C)C(=O)N[C@@H](Cc1ccccc1)C(N)=O, also called Compound No. 234) [[D-Tyr1,Val3,AzaGly7,Arg(Me)9]MS10] | 1 x Metastin (1-54) | 47 nM
[dY]NTNSFGL[Arg(Me)]F-NH2 (N-terminus assumed; SMILES CNC(=N)NCCC[C@H](NC(=O)[C@H](CC(C)C)NC(=O)CNC(=O)[C@H](Cc1ccccc1)NC(=O)[C@H](CO)NC(=O)[C@H](CC(N)=O)NC(=O)[C@@H](NC(=O)[C@H](CC(N)=O)NC(=O)[C@H](N)Cc1ccc(O)cc1)[C@@H](C)O)C(=O)N[C@@H](Cc1ccccc1)C(N)=O, also called Compound No. 205) [[D-Tyr1,Thr3,Arg(Me)9]MS10] | 10 x Metastin (1-54) | 260 nM
[dY]QWNSFGL[Arg(Me)]F-NH2 (also called Compound No. 214) [[D-Tyr1,Gln2,Arg(Me)9]MS10] | 10 x Metastin (1-54) | 390 nM
[dY]NINSF[azaGly]L[Arg(Me)]F-NH2 (N-terminus assumed; SMILES CC[C@H](C)[C@H](NC(=O)[C@H](CC(N)=O)NC(=O)[C@H](N)Cc1ccc(O)cc1)C(=O)N[C@@H](CC(N)=O)C(=O)N[C@@H](CO)C(=O)N[C@@H](Cc1ccccc1)C(=O)NNC(=O)N[C@@H](CC(C)C)C(=O)N[C@@H](CCCNC(=N)NC)C(=O)N[C@@H](Cc1ccccc1)C(N)=O, also called Compound No. 233) [[D-Tyr1,Ile3,AzaGly7,Arg(Me)9]MS10] | 1 x Metastin (1-54) | 23 nM
[dY]N[Phe(2-Cl)]NSF[azaGly]L[Arg(Me)]F-NH2 (N-terminus assumed; SMILES CNC(=N)NCCC[C@H](NC(=O)[C@H](CC(C)C)NC(=O)NNC(=O)[C@H](Cc1ccccc1)NC(=O)[C@H](CO)NC(=O)[C@H](CC(N)=O)NC(=O)[C@H](Cc1ccccc1Cl)NC(=O)[C@H](CC(N)=O)NC(=O)[C@H](N)Cc1ccc(O)cc1)C(=O)N[C@@H](Cc1ccccc1)C(N)=O, also called Compound No. 247) [[D-Tyr1,Phe(2Cl)3,AzaGly7,Arg(Me)9]MS10] | 1 x Metastin (1-54) | 45 nM
[dY]N[Phe(4-NH2)]NSF[azaGly]L[Arg(Me)]F-NH2 (N-terminus assumed; SMILES CNC(=N)NCCC[C@H](NC(=O)[C@H](CC(C)C)NC(=O)NNC(=O)[C@H](Cc1ccccc1)NC(=O)[C@H](CO)NC(=O)[C@H](CC(N)=O)NC(=O)[C@H](Cc1ccc(N)cc1)NC(=O)[C@H](CC(N)=O)NC(=O)[C@H](N)Cc1ccc(O)cc1)C(=O)N[C@@H](Cc1ccccc1)C(N)=O, also called Compound No. 250) [[D-Tyr1,Phe(4NH2)3,AzaGly7,Arg(Me)9]MS10] | 1 x Metastin (1-54) | 3.7 nM
[dY]TWNSFGL[Arg(Me)]F-NH2 (N-terminus assumed; SMILES CNC(=N)NCCC[C@H](NC(=O)[C@H](CC(C)C)NC(=O)CNC(=O)[C@H](Cc1ccccc1)NC(=O)[C@H](CO)NC(=O)[C@H](CC(N)=O)NC(=O)[C@H](Cc1c[nH]c2ccccc12)NC(=O)[C@@H](NC(=O)[C@H](N)Cc1ccc(O)cc1)[C@@H](C)O)C(=O)N[C@@H](Cc1ccccc1)C(N)=O, also called Compound No. 215) [[D-Tyr1,Thr2,Arg(Me)9]MS10] | 10 x Metastin (1-54) | 250 nM
[dY]NWNSFAL[Arg(Me)]F-NH2 (N-terminus assumed; SMILES CNC(=N)NCCC[C@H](NC(=O)[C@H](CC(C)C)NC(=O)[C@H](C)NC(=O)[C@H](Cc1ccccc1)NC(=O)[C@H](CO)NC(=O)[C@H](CC(N)=O)NC(=O)[C@H](Cc1c[nH]c2ccccc12)NC(=O)[C@H](CC(N)=O)NC(=O)[C@H](N)Cc1ccc(O)cc1)C(=O)N[C@@H](Cc1ccccc1)C(N)=O, also called Compound No. 204) [[D-Tyr1,Ala7,Arg(Me)9]MS10] | 5 x Metastin (1-54) | 680 nM
[dY]NVNSFGL[Arg(Me)]F-NH2 (N-terminus assumed; SMILES CNC(=N)NCCC[C@H](NC(=O)[C@H](CC(C)C)NC(=O)CNC(=O)[C@H](Cc1ccccc1)NC(=O)[C@H](CO)NC(=O)[C@H](CC(N)=O)NC(=O)[C@@H](NC(=O)[C@H](CC(N)=O)NC(=O)[C@H](N)Cc1ccc(O)cc1)C(C)C)C(=O)N[C@@H](Cc1ccccc1)C(N)=O, also called Compound No. 229) [[D-Tyr1,Val3,Arg(Me)9]MS10] | 1 x Metastin (1-54) | 130 nM
[dY]NFNSF[azaGly]L[Arg(Me)]F-NH2 (also called Compound No. 244) [[D-Tyr1,Phe3,AzaGly7,Arg(Me)9]MS10] | 1 x Metastin (1-54) | 77 nM
[dY]N[Cha]NS[Cha]GL[Arg(Me)]W-NH2 (N-terminus assumed; SMILES CNC(=N)NCCC[C@H](NC(=O)[C@H](CC(C)C)NC(=O)CNC(=O)[C@H](CC1CCCCC1)NC(=O)[C@H](CO)NC(=O)[C@H](CC(N)=O)NC(=O)[C@H](CC1CCCCC1)NC(=O)[C@H](CC(N)=O)NC(=O)[C@H](N)Cc1ccc(O)cc1)C(=O)N[C@@H](Cc1c[nH]c2ccccc12)C(N)=O, also called Compound No. 182) [[D-Tyr1,Cha3,6,Arg(Me)9,Trp10]MS10] | 5 x Metastin (1-54) | 98 nM
[dY]N[2Nal]NSF[azaGly]L[Arg(Me)]F-NH2 (N-terminus assumed; SMILES CNC(=N)NCCC[C@H](NC(=O)[C@H](CC(C)C)NC(=O)NNC(=O)[C@H](Cc1ccccc1)NC(=O)[C@H](CO)NC(=O)[C@H](CC(N)=O)NC(=O)[C@H](Cc1ccc2ccccc2c1)NC(=O)[C@H](CC(N)=O)NC(=O)[C@H](N)Cc1ccc(O)cc1)C(=O)N[C@@H](Cc1ccccc1)C(N)=O, also called Compound No. 246) [[D-Tyr1,Nal(2)3,AzaGly7,Arg(Me)9]MS10] | 2 x Metastin (1-54) | 7.1 nM
[dY][2Nal]NSF[azaGly]L[Arg(Me)]F-NH2 (also called Compound No. 255) [des(1)-[D-Tyr2,Nal(2)3,AzaGly7,Arg(Me)9]MS10] | 1 x Metastin (1-54) | 33 nM

— patent publication US20090298765A1 (Takeda / Millennium, published 2009)
